Article PMC5551697 (The Journal of Cell Biology, 2017)

Legend:
GST-Aim21 = biological target: T1, GST-Aim21 (S. cerevisiae, UniProt P40563 1-679); assay: pull-down
T1 sequence (looked up): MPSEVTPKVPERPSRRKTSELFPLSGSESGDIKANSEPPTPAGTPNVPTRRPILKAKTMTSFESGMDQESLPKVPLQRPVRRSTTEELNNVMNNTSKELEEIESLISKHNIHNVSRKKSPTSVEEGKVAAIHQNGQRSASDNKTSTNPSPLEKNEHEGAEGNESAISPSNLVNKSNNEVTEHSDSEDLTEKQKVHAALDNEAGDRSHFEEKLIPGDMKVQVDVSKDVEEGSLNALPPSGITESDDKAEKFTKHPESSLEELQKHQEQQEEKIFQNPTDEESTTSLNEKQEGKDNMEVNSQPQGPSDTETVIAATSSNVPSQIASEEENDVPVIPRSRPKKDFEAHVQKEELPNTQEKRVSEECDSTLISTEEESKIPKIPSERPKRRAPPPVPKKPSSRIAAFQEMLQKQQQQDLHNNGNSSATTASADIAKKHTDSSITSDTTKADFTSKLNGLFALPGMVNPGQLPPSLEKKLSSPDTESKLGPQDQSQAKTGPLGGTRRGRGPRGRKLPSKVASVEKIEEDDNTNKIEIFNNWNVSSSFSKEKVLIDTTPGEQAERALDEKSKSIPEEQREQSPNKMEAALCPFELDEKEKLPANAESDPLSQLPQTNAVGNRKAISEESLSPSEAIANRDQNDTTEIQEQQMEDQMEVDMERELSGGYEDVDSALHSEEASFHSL

AUC = biological target: the molecule itself; assay: AUC
[1] = biological target: T2, reconstituted Tda2–Aim21 complex (GST-Aim21–His-Tda2 complex) (S. cerevisiae, UniProt P40563 1-679; P40045 1-126); assay: pull-down
T2 sequence (looked up) 1: T1 sequence (looked up)
T2 sequence (looked up) 2: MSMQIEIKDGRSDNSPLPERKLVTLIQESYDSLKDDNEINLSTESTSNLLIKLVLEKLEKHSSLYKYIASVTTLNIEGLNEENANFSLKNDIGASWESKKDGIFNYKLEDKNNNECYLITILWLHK

B1: recombinant 6-histidine-tagged Tda2 (natural protein, S. cerevisiae, UniProt P40045 1-126, looked up)
chain: T2 sequence (looked up) 2
B1 was tested, and the binding result (GST-Aim21) was “binds” and the “stoichiometry N” value (AUC) was 2.

B2: actin-capping protein carrying a 6His-tag in its Cap1 subunit (His-Cap1/Cap2 dimer) (complex, S. cerevisiae)
chain 1: MSSSKFEEVINKIINDSPPGELREVYDDLIKITSENSKNTILDAIENYNVQNCIPIEVNGNSVIISKYNKEGAKFFDPVNSVIFSVNHLERKGLDIEPYEFTHAKIEKGQLKELHDKLHEYLLQSFPGDVSFAVYPVPEEISKISIIIVSTKYNPNNFWNGHWRSSYIYDLETRELSGQISTQVHYYEDGNVSFQSGKDINQSNVDDVVCTIRDIETNFENDLDLSFFDLNEKQFKALRRRLPVTRSKINWGSAIGSYRLGKNAAEGK
chain 2: MSDAQFDAALDLLRRLNPTTLQENLNNLIELQPNLAQDLLSSVDVPLSTQKDSADSNREYLCCDYNRDIDSFRSPWSNTYYPELSPKDLQDSPFPSAPLRKLEILANDSFDVYRDLYYEGGISSVYLWDLNEEDFNGHDFAGVVLFKKNQSDHSNWDSIHVFEVTTSPSSPDSFNYRVTTTIILHLDKTKTDQNSHMMLSGNLTRQTEKDIAIDMSRPLDVIFTSHVANLGSLIEDIESQMRNLLETVYFEKTRDIFHQTKNAAIASSAEEANKDAQAEVIRGLQSL
B2: binds [1].
